Reference: US20220282217A1 (BIONTECH US, published 2022)

Key:
[1] = molecular target: HLA-B08.01 class I MHC molecule (prepared complex) (human); assay: dissociation of peptide-MHC-I complex at 37 C, 125I-labelled b2m, scintillation
Description: (§1) Briefly, synthetic genes encoding biotinylated MHC-I heavy and light chains are expressed in E. coli and purified from inclusion bodies using standard methods. […] These reactions are carried out in streptavidin coated microplates to bind the biotinylated MHC-I heavy chains to the surface and allow measurement of radiolabeled light chain to monitor complex formation. Dissociation is initiated by addition of higher concentrations of unlabeled light-chain and incubation at 37° C. Stability is defined as the length of time in hours it takes for half of the complexes to dissociate, as measured by scintillation counts.

HLA-A11.01 [2] = molecular target: T1, HLA-A11.01 (human); assay: competition with radiolabeled reference peptide, purified MHC I
T1 construct: Purified class I MHC
Description: (§2) Peptides were incubated at varying concentrations with these complexes for 2 days, and the amount of remaining radiolabeled peptide bound to […] was measured using size exclusion gel-filtration.

HLA-A03.01 [3] = molecular target: T2, HLA-A03.01 (human); assay: as above
T2 construct: Purified class I MHC
Description: as §2

[4] = molecular target: T3, HLA class I molecule B07.02; assay: pMHC-I dissociation assay with 125I-labeled beta2m light chain at 37 C, scintillation counts; time in hours for half of the complexes to dissociate
T3 construct: Purified MHC class I complex; also called HLA-B07:02
Description: as §1

[5] = molecular target: T3, HLA class I molecule B07.02; assay: competition with radiolabeled reference peptide on purified MHC I
Description: as §2

HLA-A24.02 [6] = molecular target: T4, HLA-A24.02 (human); assay: pMHC-I complex dissociation at 37 C, 125I-b2m, half-life
T4 construct: As for HLA-A02.01
Description: as §1

HLA-A02.01 [7] = molecular target: HLA-A02.01 (human); assay: as above
Description: as §1

HLA-A24.02 [8] = molecular target: T4, HLA-A24.02; assay: competition vs radiolabeled reference peptide on purified MHC I, gel filtration
Description: as §2

HLA-A02.01 [9] = molecular target: HLA-A02.01 (human); assay: as above
Description: as §2

HLA-B08.01 [10] = molecular target: T5, HLA-B08.01 (human); assay: pMHC-I complex dissociation at 37 C, 125I-b2m, half-life
T5 construct: As for HLA-A02.01
Description: as §1

HLA-B08.01 [11] = molecular target: T5, HLA-B08.01; assay: competition vs radiolabeled reference peptide on purified MHC I, gel filtration
Description: as §2

[12] = molecular target: T6, HLA class I molecule A02.01; assay: pMHC-I dissociation assay with 125I-labeled beta2m light chain at 37 C, scintillation counts; time in hours for half of the complexes to dissociate
T6 construct: Purified MHC class I complex; also called HLA-A02:01
Description: as §1

[13] = molecular target: T6, HLA class I molecule A02.01; assay: competition with radiolabeled reference peptide on purified MHC I
Description: as §2

HLA-B07.02 [14] = molecular target: T7, HLA-B07.02 (human); assay: competition vs radiolabeled reference peptide on purified MHC I, gel filtration
T7 construct: As for HLA-A02.01
Description: as §2

HLA-A11.01 [15] = molecular target: T1, HLA-A11.01; assay: pMHC-I dissociation half-life, 125I-b2m
Outline: (§3)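 Biotinylated MHC-I heavy chain made in E. coli, captured on streptavidin plates and complexed with peptide and radiolabelled light chain. Dissociation started with excess unlabelled light chain at 37 °C. Stability is the half-life in hours from scintillation counts.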

HLA-A03.01 [16] = molecular target: T2, HLA-A03.01; assay: pMHC-I dissociation half-life, 125I-b2m
Outline: as §3

[17] = molecular target: T8, HLA class I molecule B08.01; assay: pMHC-I dissociation assay with 125I-labeled beta2m light chain at 37 C, scintillation counts; time in hours for half of the complexes to dissociate
T8 construct: Purified MHC class I complex; also called HLA-B08:01
Description: as §1

HLA-A03.01 [18] = molecular target: T9, HLA-A03.01 (human); assay: competition vs radiolabeled reference peptide on purified MHC I, gel filtration
T9 construct: As for HLA-A02.01
Description: as §2

HLA-A01.01 = molecular target: T10, HLA-A01.01 (human); assay: as above
T10 construct: As for HLA-A02.01
Description: as §2

HLA-A02.01 [19] = molecular target: T11, HLA-A02.01 (human); assay: pMHC-I dissociation half-life, 125I-b2m
T11 construct: Purified class I MHC
Outline: as §3

HLA-B07.02 [20] = molecular target: T12, HLA-B07.02 (human); assay: competition with radiolabeled reference peptide, purified MHC I
T12 construct: Purified class I MHC
Description: as §2

HLA-B08.01 [21] = molecular target: T13, HLA-B08.01 (human); assay: pMHC-I dissociation half-life, 125I-b2m
T13 construct: Purified class I MHC
Outline: as §3

HLA-B07.02 [22] = molecular target: T12, HLA-B07.02; assay: pMHC-I dissociation half-life, 125I-b2m
Outline: as §3

B1: EGFR_T790M peptide MQLMPFGCLL (peptide)
peptide: MQLMPFGCLL
notes: synthetic peptide holding the EGFR T790M mutation
- Stability (half-life (hr.)) [1]: 0 h

Binder: AMTTSSSQK (also called TGFBR2(-1))
- IC50 (HLA-A11.01 [2]): 0.162 µM
- IC50 (HLA-A03.01 [3]): 0.0083 µM

Binder: KPKRDGYMF (also called GATA3 . . ; CSNH)
- Observed MHC Stability [4]: 8.6 h
- IC50 [5]: 0.0282 µM

Binder: YLVIQLQDKF (also called EGFR: SEPT14)
- Stability (T1/2 (h)) (HLA-A24.02 [6]): 2.6 h
- Stability (T1/2 (h)) (HLA-A02.01 [7]): 0 h
- IC50 (HLA-A24.02 [8]): 2.15 µM
- IC50 (HLA-A02.01 [9]): 2.06 µM

B2: EGFR_T790M peptide MQLMPFGCL (peptide)
peptide: MQLMPFGCL
notes: as for B1
- Stability (half-life (hr.)) [1]: 0 h

Binder: WLHKRGKYI (also called AKT1, E17K)
- Stability (T1/2 (h)) (HLA-B08.01 [10]): 1.3 h
- IC50 (HLA-B08.01 [11]): 0.417 µM

Binder: TLQRSSLWCL (also called GATA3 . . ; CSNH)
- Observed MHC Stability [12]: 0.5 h
- IC50 [13]: 0.118 µM

Binder: KGPELFPLI (also called C11orf95: RELA)
- Stability (T1/2 (h)) (HLA-A24.02 [6]): 1.7 h
- Stability (T1/2 (h)) (HLA-A02.01 [7]): 0.3 h
- IC50 (HLA-A24.02 [8]): 0.014 µM
- IC50 (HLA-A02.01 [9]): 0.101 µM

Binder: VPLYGLLLEM (also called ESR1, D538G)
- IC50 (HLA-B07.02 [14]): 0.0279 µM

B3: EGFR_T790M peptide QLIMQLMPF (peptide)
peptide: QLIMQLMPF
notes: as for B1
- Stability (half-life (hr.)) [1]: 0 h

B4: EGFR_T790M peptide VQLIMQLMPF (peptide)
peptide: VQLIMQLMPF
notes: as for B1
- Stability (half-life (hr.)) [1]: 0 h

Binder: LATEKSRWS (also called BRAF, V600E)
- Stability (T1/2 (h)) (HLA-A02.01 [7]): 0 h
- Stability (T1/2 (h)) (HLA-B08.01 [10]): 0 h
- IC50 (HLA-A02.01 [9]): 61 µM
- IC50 (HLA-B08.01 [11]): 37 µM

Binder: VVPLYGLLL (also called ESR1, D538G)
- Stability (T1/2 (h)) (HLA-A24.02 [6]): 0.8 h
- Stability (T1/2 (h)) (HLA-A02.01 [7]): 0.6 h
- IC50 (HLA-A24.02 [8]): 0.658 µM

Binder: SLKKVPALK (also called SMAP1(-1))
- IC50 (HLA-A11.01 [2]): 0.129 µM
- IC50 (HLA-A03.01 [3]): 0.0044 µM

Binder: VVGACGVGK (also called KRAS, G12C)
- Measured stability (HLA-A11.01 [15]): 10 h
- Measured stability (HLA-A03.01 [16]): 5 h

Binder: VVGADGVGK (also called KRAS, G12D)
- Measured stability (HLA-A11.01 [15]): 3.4 h

Binder: VVVGADGVGK (also called KRAS, G12D)
- Measured stability (HLA-A11.01 [15]): 13 h
- Measured stability (HLA-A03.01 [16]): 2.3 h

Binder: VVVGAVGVGK (also called KRAS, G12V)
- Measured stability (HLA-A11.01 [15]): 24.3 h
- Measured stability (HLA-A03.01 [16]): 6.7 h

Binder: GVYTFLPSTL (also called ESR1, S463P)
- Stability (T1/2 (h)) (HLA-A24.02 [6]): 0 h
- Stability (T1/2 (h)) (HLA-A02.01 [7]): 0.4 h
- IC50 (HLA-A24.02 [8]): 7.7 µM
- IC50 (HLA-A02.01 [9]): 1.2 µM

Binder: KPKRDGYMFL (also called GATA3 . . ; CSNH)
- Observed MHC Stability [4]: 3.3 h
- IC50 [5]: 0.0981 µM

Binder: MFATLQRSSL (also called GATA3 . . ; CSNH)
- Observed MHC Stability [4]: 0 h
- Observed MHC Stability [17]: 0 h
- IC50 [5]: 0.267 µM

Binder: CLSFLSSWDY (also called C15ORF40(+1))
- IC50 (HLA-A03.01 [18]): 2.71 µM
- IC50 (HLA-A01.01): 0.987 µM

Binder: MSVCFFFFCY (also called CNOT1(-1))
- IC50 (HLA-A01.01): 4.37 µM

Binder: GPPARVPAV (also called GATA3 . . ; CSNH)
- Observed MHC Stability [4]: 1.6 h
- IC50 [5]: 0.221 µM

Binder: KISNWSLKK (also called SMAP1(-1))
- IC50 (HLA-A11.01 [2]): 0.0098 µM
- IC50 (HLA-A03.01 [3]): 0.0088 µM

Binder: RLSSCVPVA (also called TGFBR2(-1))
- Stability (T1/2 (h)) (HLA-A02.01 [19]): 18.7 h
- Stability (T1/2 (h)) (HLA-A03.01 [16]): 0 h

Binder: LPSQRRNHWM (also called TP53, CSES)
- IC50 (HLA-B07.02 [20]): 0.01 µM
- Stability (T1/2 (h)) (HLA-B08.01 [21]): 0.7 h
- Stability (T1/2 (h)) (HLA-B07.02 [22]): 6.5 h

Binder: LSFLSSWDY (also called C15ORF40(+1))
- IC50 (HLA-A01.01): 0.0529 µM

Binder: FATLQRSSL (also called GATA3 . . ; CSNH)
- Observed MHC Stability [4]: 0.7 h
- Observed MHC Stability [17]: 0 h
- IC50 [5]: 0.014 µM

Binder: VVPLCDLLL (also called ESR1, Y537C)
- Stability (T1/2 (h)) (HLA-A24.02 [6]): 0.4 h
- Stability (T1/2 (h)) (HLA-A02.01 [7]): 0 h
- IC50 (HLA-A24.02 [8]): 3.89 µM
- IC50 (HLA-A02.01 [9]): 1.2 µM

Binder: VVPLSDLLL (also called ESR1, Y537S)
- Stability (T1/2 (h)) (HLA-A24.02 [6]): 0.5 h
- Stability (T1/2 (h)) (HLA-A02.01 [7]): 0 h
- IC50 (HLA-A24.02 [8]): 8.25 µM
- IC50 (HLA-A02.01 [9]): 2.55 µM

Binder: FLPSTLKSL (also called ESR1, S463P)
- Stability (T1/2 (h)) (HLA-B08.01 [10]): 0 h
- IC50 (HLA-B08.01 [11]): 1.97 µM

Binder: YMANGSLLNY (also called BTK, C481S)
- IC50 (HLA-A03.01 [18]): 0.0959 µM
- IC50 (HLA-A01.01): 0.0132 µM

Binder: YPAYSKDSGL (also called β2M, . . ; SIRH)
- IC50 (HLA-B07.02 [14]): 0.0795 µM

Binder: MLTGPPARV (also called GATA3 . . ; CSNH)
- Observed MHC Stability [12]: 5.8 h
- IC50 [13]: 0.0106 µM

Binder: KPTRAATVSV (also called TP53, QPSL)
- IC50 (HLA-B07.02 [20]): 0.008 µM
- Stability (T1/2 (h)) (HLA-B07.02 [22]): 3 h

Binder: SAMTTSSSQK (also called TGFBR2(-1))
- IC50 (HLA-A11.01 [2]): 0.0158 µM
- IC50 (HLA-A03.01 [3]): 0.0157 µM

Binder: LPRKPTRAAT (also called TP53, QPSL)
- IC50 (HLA-B07.02 [20]): 0.003 µM
- Stability (T1/2 (h)) (HLA-B07.02 [22]): 3.7 h

Binder: HPRPAPASA (also called TP53, SHST)
- IC50 (HLA-B07.02 [20]): 0.011 µM
- Stability (T1/2 (h)) (HLA-B08.01 [21]): 0 h
- Stability (T1/2 (h)) (HLA-B07.02 [22]): 4.9 h

B5: EGFR_T790M peptide IMQLMPFGCL (peptide)
peptide: IMQLMPFGCL
notes: as for B1
- Stability (half-life (hr.)) [1]: 0 h

Binder: LATEKSRWSG (also called BRAF, V600E)
- Stability (T1/2 (h)) (HLA-A02.01 [7]): 0 h
- Stability (T1/2 (h)) (HLA-B08.01 [10]): 0 h
- IC50 (HLA-A02.01 [9]): 23.3 µM
- IC50 (HLA-B08.01 [11]): 46.6 µM
